From the supplement of paper PMC10126150
± gives the standard deviation of the averaged measurements.

Test system: ATP
Experiment: switch fluorescence ratio, 500 uM ATP over buffer (Cy3 cluster intensity, sum of 5 cycles each) (fold (ratio)); higher = stronger signal-on switching upon ATP binding; sequences stand for … in TCGTCGGCAGCGTCAGATGTGTATAAGAGACAGTTTTTTTTTTTTTTTTTTTTTTTTT…TC
Settings: aptamer strand: ATP DNA aptamer (quencher-CACCTGGGGGAGTATTGCGGAGGAAGG + anchor), 100 nM annealed; ATP concentration: 500 uM
Method in brief: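 After annealing to 100 nM quencher-labelled ATP aptamer, Cy3-labelled switching-strand clusters on a modified Illumina MiSeq flow-cell were imaged in selection buffer. A second image followed after 15 min with 500 uM ATP at 22 °C, and five such buffer/ATP cycles were done, each separated by NaOH stripping and re-annealing. The fluorescence ratio, averaged per switch-domain sequence, is summed target-cycle over summed buffer-cycle Cy3 intensity per cluster, with clusters outside 100-1000 RFU excluded.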
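Also: ATP exposure 15 min at 22 °C before imaging.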

Q: TTAGGATCGC was tested. Which switch fluorescence ratio did it give?
A: Its switch fluorescence ratio is 1.02 ± 0.057.

Q: Which switch fluorescence ratio does the source give for ATGTGATAGG here?
A: The switch fluorescence ratio was 1.01 ± 0.058.

Q: For TTTTTAACTC, which switch fluorescence ratio is on record?
A: The switch fluorescence ratio was 1.03 ± 0.021.

Q: For ATTGCATGAG, which switch fluorescence ratio is on record?
A: Its switch fluorescence ratio is 1.004 ± 0.0014.

Q: For CTGGGGTTGC, which switch fluorescence ratio is on record?
A: Its switch fluorescence ratio is 0.96 ± 0.03.

Q: For TATTTAAT, which switch fluorescence ratio is on record?
A: Its switch fluorescence ratio is 1.07 ± 0.11.

Q: Which switch fluorescence ratio does the source give for CGAATAGTTG here?
A: The switch fluorescence ratio was 1.005 ± 0.0085.

Q: With TATGTAGAGA as the sequence, how does the switch fluorescence ratio read?
A: Its switch fluorescence ratio is 0.99 ± 0.023.

Q: With AAGAGAGAGC as the sequence, how does the switch fluorescence ratio read?
A: The switch fluorescence ratio was 0.989 ± 0.007.

Q: How did the switch fluorescence ratio turn out when TATAGGGGTC was run?
A: Its switch fluorescence ratio is 0.968 ± 0.014.

Q: Which switch fluorescence ratio does the source give for GGCCTGGGTT here?
A: Its switch fluorescence ratio is 0.967 ± 0.0098.

Q: For ACCATTGGTG, which switch fluorescence ratio is on record?
A: Its switch fluorescence ratio is 1.12 ± 0.013.

Q: CGGGCGGTGG was tested. Which switch fluorescence ratio did it give?
A: Its switch fluorescence ratio is 0.9829 ± 0.0069.

Q: With TTAGGCCGGG as the sequence, how does the switch fluorescence ratio read?
A: Its switch fluorescence ratio is 0.998 ± 0.041.

Q: How did the switch fluorescence ratio turn out when GAATGACGGA was run?
A: Its switch fluorescence ratio is 1.02 ± 0.057.

Q: CGGGGCGG was tested. Which switch fluorescence ratio did it give?
A: Its switch fluorescence ratio is 0.952 ± 0.057.

Q: TCTGTGAGTG was tested. Which switch fluorescence ratio did it give?
A: Its switch fluorescence ratio is 0.973 ± 0.014.

Q: TGAGAGATTG was tested. Which switch fluorescence ratio did it give?
A: Its switch fluorescence ratio is 0.9773 ± 0.007.

Q: With GCATTATTCA as the sequence, how does the switch fluorescence ratio read?
A: The switch fluorescence ratio was 1.04 ± 0.014.

Q: TTTACAGAGT was tested. Which switch fluorescence ratio did it give?
A: The switch fluorescence ratio was 1.06 ± 0.12.

Q: Which switch fluorescence ratio does the source give for GCGTCAACTG here?
A: Its switch fluorescence ratio is 1.04 ± 0.023.

Q: With TTTTTCAAGT as the sequence, how does the switch fluorescence ratio read?
A: The switch fluorescence ratio was 1.1 ± 0.29.

Q: GGTCGAGGGG was tested. Which switch fluorescence ratio did it give?
A: Its switch fluorescence ratio is 0.997 ± 0.021.

Q: For GGGCTATCCG, which switch fluorescence ratio is on record?
A: The switch fluorescence ratio was 0.983 ± 0.024.

Q: With CCCCATTCCG as the sequence, how does the switch fluorescence ratio read?
A: Its switch fluorescence ratio is 1.04 ± 0.022.

Q: TGTGAGTGTA was tested. Which switch fluorescence ratio did it give?
A: The switch fluorescence ratio was 1.01 ± 0.025.

Q: GCGTAACTTC was tested. Which switch fluorescence ratio did it give?
A: Its switch fluorescence ratio is 1.01 ± 0.044.

Q: Which switch fluorescence ratio does the source give for TTTAGCTTCA here?
A: Its switch fluorescence ratio is 1.099 ± 0.0078.

Q: Which switch fluorescence ratio does the source give for CCTTCACCTT here?
A: The switch fluorescence ratio was 1.077 ± 0.0017.

Q: For GGGGGTACTT, which switch fluorescence ratio is on record?
A: The switch fluorescence ratio was 1 ± 0.03.

Q: How did the switch fluorescence ratio turn out when CCCTAATACG was run?
A: Its switch fluorescence ratio is 1.76 ± 0.044.

Q: Which switch fluorescence ratio does the source give for AGCTTCGGAC here?
A: Its switch fluorescence ratio is 1.35 ± 0.12.

Q: For GCATCGTAGA, which switch fluorescence ratio is on record?
A: Its switch fluorescence ratio is 1.07 ± 0.015.

Q: For GGCATTTAAA, which switch fluorescence ratio is on record?
A: Its switch fluorescence ratio is 0.983 ± 0.024.

Q: With TATGGGAGGC as the sequence, how does the switch fluorescence ratio read?
A: Its switch fluorescence ratio is 1.01 ± 0.059.

Q: How did the switch fluorescence ratio turn out when CCAAGGCTGG was run?
A: The switch fluorescence ratio was 1.02 ± 0.043.

Q: For TTATGAGGAC, which switch fluorescence ratio is on record?
A: Its switch fluorescence ratio is 1.03 ± 0.056.

Q: GGGATAGAGG was tested. Which switch fluorescence ratio did it give?
A: The switch fluorescence ratio was 0.999 ± 0.051.

Q: Which switch fluorescence ratio does the source give for GCCTTCGAGG here?
A: The switch fluorescence ratio was 1.03 ± 0.012.

Q: GGTGGCGCTA was tested. Which switch fluorescence ratio did it give?
A: The switch fluorescence ratio was 1.01 ± 0.02.

Q: Which switch fluorescence ratio does the source give for TAAGGGTTGG here?
A: Its switch fluorescence ratio is 0.978 ± 0.03.

Q: TTTTAAGTGG was tested. Which switch fluorescence ratio did it give?
A: The switch fluorescence ratio was 0.991 ± 0.023.

Q: Which switch fluorescence ratio does the source give for GAGAGTCTTC here?
A: The switch fluorescence ratio was 0.985 ± 0.0088.

Q: How did the switch fluorescence ratio turn out when AGGGAGAACG was run?
A: The switch fluorescence ratio was 0.961 ± 0.047.

Q: With AGTATTTCGT as the sequence, how does the switch fluorescence ratio read?
A: Its switch fluorescence ratio is 0.987 ± 0.031.

Q: Which switch fluorescence ratio does the source give for TAAAGAAACT here?
A: The switch fluorescence ratio was 1.28 ± 0.35.

Q: How did the switch fluorescence ratio turn out when CCAGATTACT was run?
A: The switch fluorescence ratio was 1.01 ± 0.015.

Q: How did the switch fluorescence ratio turn out when AGGGTAGGGC was run?
A: The switch fluorescence ratio was 1.02 ± 0.025.

Q: Which switch fluorescence ratio does the source give for TTTTTTTACC here?
A: The switch fluorescence ratio was 1.01 ± 0.021.

Q: How did the switch fluorescence ratio turn out when AAGGCTGCGA was run?
A: Its switch fluorescence ratio is 1.018 ± 0.0076.

Q: For ATAGGAGGTG, which switch fluorescence ratio is on record?
A: The switch fluorescence ratio was 1.07 ± 0.019.

Q: TATTGTTATG was tested. Which switch fluorescence ratio did it give?
A: The switch fluorescence ratio was 1 ± 0.028.

Q: TGAAGGTACA was tested. Which switch fluorescence ratio did it give?
A: The switch fluorescence ratio was 1.034 ± 0.0031.

Q: How did the switch fluorescence ratio turn out when CCGAACACCT was run?
A: Its switch fluorescence ratio is 1.219 ± 0.0037.

Q: With TAAAACTTTT as the sequence, how does the switch fluorescence ratio read?
A: The switch fluorescence ratio was 1.02 ± 0.043.

Q: With TATCAAAAGA as the sequence, how does the switch fluorescence ratio read?
A: The switch fluorescence ratio was 1.03 ± 0.016.

Q: For CCTAGTTGAA, which switch fluorescence ratio is on record?
A: The switch fluorescence ratio was 1.03 ± 0.015.

Q: For TATCCAGTGG, which switch fluorescence ratio is on record?
A: Its switch fluorescence ratio is 1.01 ± 0.054.

Q: How did the switch fluorescence ratio turn out when TTATATTTGA was run?
A: The switch fluorescence ratio was 0.98 ± 0.015.

Q: For ATGGGAGAAG, which switch fluorescence ratio is on record?
A: Its switch fluorescence ratio is 0.95776 ± 0.00073.

Q: Which switch fluorescence ratio does the source give for AGTGGGGATC here?
A: Its switch fluorescence ratio is 1.03 ± 0.035.

Q: AGGGCAGAGA was tested. Which switch fluorescence ratio did it give?
A: The switch fluorescence ratio was 1.02 ± 0.046.

Q: For GCTTGCCTAG, which switch fluorescence ratio is on record?
A: Its switch fluorescence ratio is 0.962 ± 0.038.

Q: With TGGACAGACA as the sequence, how does the switch fluorescence ratio read?
A: The switch fluorescence ratio was 1.111 ± 0.0046.

Q: How did the switch fluorescence ratio turn out when GATGGCGTAT was run?
A: The switch fluorescence ratio was 0.98 ± 0.031.

Q: Which switch fluorescence ratio does the source give for TTTTCTTTTT here?
A: Its switch fluorescence ratio is 1.06 ± 0.14.

Q: With GAGAAAGCAG as the sequence, how does the switch fluorescence ratio read?
A: Its switch fluorescence ratio is 0.977 ± 0.025.

Q: How did the switch fluorescence ratio turn out when GCTTTCACGA was run?
A: Its switch fluorescence ratio is 0.9879 ± 0.0036.

Q: For CCGGGGTGGG, which switch fluorescence ratio is on record?
A: Its switch fluorescence ratio is 0.9964 ± 0.0055.

Q: With CGTAAAGCAG as the sequence, how does the switch fluorescence ratio read?
A: The switch fluorescence ratio was 1.01 ± 0.061.

Q: GATAAAAGGC was tested. Which switch fluorescence ratio did it give?
A: The switch fluorescence ratio was 0.997 ± 0.024.

Q: For AATCGGATGG, which switch fluorescence ratio is on record?
A: The switch fluorescence ratio was 1.02 ± 0.037.

Q: Which switch fluorescence ratio does the source give for GTTGGTTGGG here?
A: The switch fluorescence ratio was 0.975 ± 0.023.

Q: With GGGGAGGTTT as the sequence, how does the switch fluorescence ratio read?
A: Its switch fluorescence ratio is 0.966 ± 0.02.

Q: How did the switch fluorescence ratio turn out when TTTAGCGGGG was run?
A: Its switch fluorescence ratio is 1.01 ± 0.016.

Q: For TTCGACCGTG, which switch fluorescence ratio is on record?
A: The switch fluorescence ratio was 0.997 ± 0.033.

Q: TCTGGACATT was tested. Which switch fluorescence ratio did it give?
A: Its switch fluorescence ratio is 1.01 ± 0.023.

Q: For TTCCTTAGTC, which switch fluorescence ratio is on record?
A: The switch fluorescence ratio was 1.019 ± 0.0045.

Q: How did the switch fluorescence ratio turn out when ACCCGTAATG was run?
A: Its switch fluorescence ratio is 1.75 ± 0.028.

Q: Which switch fluorescence ratio does the source give for GGGATTTTCG here?
A: The switch fluorescence ratio was 0.98 ± 0.023.

Q: With ACGTCGTAGG as the sequence, how does the switch fluorescence ratio read?
A: The switch fluorescence ratio was 1.05 ± 0.016.

Q: TTAAATTTTG was tested. Which switch fluorescence ratio did it give?
A: The switch fluorescence ratio was 1.015 ± 0.0084.

Q: How did the switch fluorescence ratio turn out when GGTAGGAAAC was run?
A: Its switch fluorescence ratio is 0.994 ± 0.045.

Q: Which switch fluorescence ratio does the source give for TAGAGGGATG here?
A: The switch fluorescence ratio was 0.989 ± 0.015.

Q: With ATGCGCGGTA as the sequence, how does the switch fluorescence ratio read?
A: Its switch fluorescence ratio is 1.01 ± 0.068.

Q: For TCGGTCCCGG, which switch fluorescence ratio is on record?
A: The switch fluorescence ratio was 1 ± 0.065.

Q: With CTACTGAAGG as the sequence, how does the switch fluorescence ratio read?
A: The switch fluorescence ratio was 0.983 ± 0.014.

Q: How did the switch fluorescence ratio turn out when AAAATTATGG was run?
A: Its switch fluorescence ratio is 0.968 ± 0.02.

Q: For TTTGAAGTCA, which switch fluorescence ratio is on record?
A: Its switch fluorescence ratio is 1 ± 0.022.

Q: With GGTGATTTAA as the sequence, how does the switch fluorescence ratio read?
A: Its switch fluorescence ratio is 1.01 ± 0.012.

Q: With TATACGACTC as the sequence, how does the switch fluorescence ratio read?
A: Its switch fluorescence ratio is 1.09 ± 0.068.

Q: For AAGGGTCAAA, which switch fluorescence ratio is on record?
A: The switch fluorescence ratio was 0.985 ± 0.048.

Q: Which switch fluorescence ratio does the source give for GAGCAGTCGG here?
A: The switch fluorescence ratio was 0.982 ± 0.036.

Q: TGCTCTAGGA was tested. Which switch fluorescence ratio did it give?
A: The switch fluorescence ratio was 1.001 ± 0.0042.

Q: How did the switch fluorescence ratio turn out when TGTCGCTGGG was run?
A: Its switch fluorescence ratio is 1.02 ± 0.01.

Q: Which switch fluorescence ratio does the source give for CTTTTTGACT here?
A: Its switch fluorescence ratio is 1.01 ± 0.028.

Q: How did the switch fluorescence ratio turn out when CTATGCGTTT was run?
A: Its switch fluorescence ratio is 0.989 ± 0.025.

Q: Which switch fluorescence ratio does the source give for TGGGATAGAT here?
A: Its switch fluorescence ratio is 0.996 ± 0.027.

Q: CTCGACGGGG was tested. Which switch fluorescence ratio did it give?
A: Its switch fluorescence ratio is 0.975 ± 0.035.

Q: Which switch fluorescence ratio does the source give for CCATGGGTTG here?
A: Its switch fluorescence ratio is 1.01 ± 0.016.
